The supplement of paper PMC7125110
± gives the standard error. For some of these results: This sample holds only a part of the variants without activity.

B1: glmS ribozyme (parent)
chain: AUAAAAGCGCCAGAACUACAGAAAUGUAGUUGACGAGGAGGAGGUUUAUCGAAUUUUCGGCGGAUGCCUCCAAA

Columns and labels:
Details in all cases: with glucosamine-6-phosphate
glucosamine-6-phosphate [1] = variants of: B1; experiment: kcat; higher = faster cleavage; RNA array
In short: (§1)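 Tiles of sequenced MiSeq chips were imaged over ~14 h at 37 °C. On them, barcoded ribozyme variants had been transcribed in situ by E. coli RNA polymerase and were tracked via a hybridised Cy3 probe while glucosamine-6-phosphate (40 μM to 10 mM) in HEPES/KCl/Mg(OAc)2 buffer flowed in. Per-tile medians, normalised to baseline and to non-cleaving reference variants, were fit to one- or two-exponential decays for kobs, and weighted Michaelis–Menten fits gave kcat and KM.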

glucosamine-6-phosphate [2] = variants of: B1; experiment: KM; higher = weaker cofactor use; RNA array
In short: as §1

glucosamine-6-phosphate [3] = variants of: B1; experiment: self-cleavage kobs at 40 uM GlcN6P; higher = faster cleavage; RNA array
In short: as §1

glucosamine-6-phosphate [4] = variants of: B1; experiment: self-cleavage kobs at 160 uM GlcN6P; higher = faster cleavage; RNA array
In short: as §1

glucosamine-6-phosphate [5] = variants of: B1; experiment: self-cleavage kobs at 640 uM GlcN6P; higher = faster cleavage; RNA array
In short: as §1

glucosamine-6-phosphate [6] = variants of: B1; experiment: self-cleavage kobs at 2500 uM GlcN6P; higher = faster cleavage; RNA array
In short: as §1

glucosamine-6-phosphate [7] = variants of: B1; experiment: self-cleavage kobs at 10000 uM GlcN6P; higher = faster cleavage; RNA array
In short: as §1

Variant | kcat (glucosamine-6-phosphate [1]) [s⁻¹] | KM (glucosamine-6-phosphate [2]) [µM] | self-cleavage kobs at 40 uM GlcN6P (glucosamine-6-phosphate [3]) [s⁻¹] | self-cleavage kobs at 160 uM GlcN6P (glucosamine-6-phosphate [4]) [s⁻¹] | self-cleavage kobs at 640 uM GlcN6P (glucosamine-6-phosphate [5]) [s⁻¹] | self-cleavage kobs at 2500 uM GlcN6P (glucosamine-6-phosphate [6]) [s⁻¹] | self-cleavage kobs at 10000 uM GlcN6P (glucosamine-6-phosphate [7]) [s⁻¹]
U65G G66U | 0.00147 ± 0.00011 | 2310 ± 320 | 1.83e-05 ± 8e-06 | 9.38e-05 ± 2.2e-05 | 0.000342 ± 5.3e-05 | 0.000789 ± 0.0001 | 0.00117 ± 0.00012
A15G G37U | 1.02e-05 ± 7.1e-07 | 623 ± 300 | < 1e-05 | – | – | – | –
U49A C61U | < 1e-05 | – | – | – | – | – | –
A14G C16U G43A C67G | 0.00284 ± 0.00076 | 2840 ± 1100 | 4.98e-05 ± 2.2e-05 | 0.000207 ± 7.1e-05 | 0.000459 ± 8.8e-05 | 0.00221 ± 0.00072 | 0.00217 ± 0.00045
G41A A42C | 4.51e-05 ± 1.7e-05 | – | – | – | – | 6.51e-05 ± 1.8e-05 | 3.53e-05 ± 1.3e-05
C50A G66C C67U | 1.02e-05 ± 2.9e-06 | – | – | – | – | – | –
U31G | 0.0277 ± 0.0077 | 3080 ± 1000 | 0.000403 ± 7.4e-06 | 0.00114 ± 4.7e-05 | 0.00394 ± 0.00013 | 0.0126 ± 0.00057 | 0.0227 ± 0.00081
G35U G37A G60U | < 1e-05 | – | – | – | – | < 1e-05 | –
G9A A48G G51A G63A | 1.15e-05 ± 4.5e-06 | – | – | – | – | – | –
G38A C61A G66U U69C C70U | 4.44e-05 ± 6.1e-06 | – | – | – | – | – | –
A6C C71G | 1.2e-05 ± 1.5e-06 | – | < 1e-05 | – | – | – | –
U30A U65C | 0.000105 ± 8e-06 | 2860 ± 590 | – | – | – | 4.68e-05 ± 1.5e-05 | 8.23e-05 ± 1.6e-05
U31G G41A | 0.000638 ± 6.8e-05 | 1220 ± 220 | – | 7.06e-05 ± 1.2e-05 | 0.000224 ± 2.5e-05 | 0.000482 ± 6.9e-05 | 0.000506 ± 9.5e-05
G29C U65G | 0.00083 ± 0.00013 | 4400 ± 1000 | – | – | 0.000115 ± 2.7e-05 | 0.000279 ± 7.3e-05 | 0.000591 ± 0.00015
C67G C71U | 2.93e-05 ± 3.2e-06 | – | – | – | – | 3.07e-05 ± 8.1e-06 | 2.63e-05 ± 6.7e-06
A12G A42U | 4.92e-05 ± 2.6e-06 | – | – | – | – | – | 1.63e-05 ± 6.6e-06
A14U U46G | 0.0012 ± 0.00012 | 2150 ± 380 | 1.98e-05 ± 6.9e-06 | 9.07e-05 ± 2.1e-05 | 0.000293 ± 4.6e-05 | 0.000548 ± 0.0001 | 0.00104 ± 0.00012
A14C U65A | 0.000588 ± 2.2e-05 | 3100 ± 210 | – | – | 0.000103 ± 1.5e-05 | 0.000248 ± 5e-05 | 0.000453 ± 5.4e-05
A6U U65A | < 1e-05 | – | – | – | – | – | –
A14U G37U G63U | < 1e-05 | – | < 1e-05 | – | – | – | –
